Publication PMC9371921, “Strand annealing and motor driven activities of SMARCAL1 and ZRANB3 are stimulated by RAD51 and the paralog complex” (Nucleic Acids Research, 2022)

Experiments:
[1] = molecular target: T1, ZRANB3 F47A (human, UniProt Q5FWF4 1-1079, F47A); test: pull-down; ZRANB3 F→A variants and RAD51 (Supplementary Figure S4); the methods tell two set-ups (MBP-RAD51 on amylose resin with purified FLAG-ZRANB3; FLAG-ZRANB3 variants from Sf9 soluble extract on anti-FLAG resin with purified RAD51) and the text does not tell which was used for which variant; 100 mM NaCl, 1 h at 4°C; settings: both partners purified
T1 construct: human ZRANB3 with F47A; construct as m2; also called F47A substitution mutant; source: Sf9, expressed and purified similarly as the wild type
T1 sequence (looked up): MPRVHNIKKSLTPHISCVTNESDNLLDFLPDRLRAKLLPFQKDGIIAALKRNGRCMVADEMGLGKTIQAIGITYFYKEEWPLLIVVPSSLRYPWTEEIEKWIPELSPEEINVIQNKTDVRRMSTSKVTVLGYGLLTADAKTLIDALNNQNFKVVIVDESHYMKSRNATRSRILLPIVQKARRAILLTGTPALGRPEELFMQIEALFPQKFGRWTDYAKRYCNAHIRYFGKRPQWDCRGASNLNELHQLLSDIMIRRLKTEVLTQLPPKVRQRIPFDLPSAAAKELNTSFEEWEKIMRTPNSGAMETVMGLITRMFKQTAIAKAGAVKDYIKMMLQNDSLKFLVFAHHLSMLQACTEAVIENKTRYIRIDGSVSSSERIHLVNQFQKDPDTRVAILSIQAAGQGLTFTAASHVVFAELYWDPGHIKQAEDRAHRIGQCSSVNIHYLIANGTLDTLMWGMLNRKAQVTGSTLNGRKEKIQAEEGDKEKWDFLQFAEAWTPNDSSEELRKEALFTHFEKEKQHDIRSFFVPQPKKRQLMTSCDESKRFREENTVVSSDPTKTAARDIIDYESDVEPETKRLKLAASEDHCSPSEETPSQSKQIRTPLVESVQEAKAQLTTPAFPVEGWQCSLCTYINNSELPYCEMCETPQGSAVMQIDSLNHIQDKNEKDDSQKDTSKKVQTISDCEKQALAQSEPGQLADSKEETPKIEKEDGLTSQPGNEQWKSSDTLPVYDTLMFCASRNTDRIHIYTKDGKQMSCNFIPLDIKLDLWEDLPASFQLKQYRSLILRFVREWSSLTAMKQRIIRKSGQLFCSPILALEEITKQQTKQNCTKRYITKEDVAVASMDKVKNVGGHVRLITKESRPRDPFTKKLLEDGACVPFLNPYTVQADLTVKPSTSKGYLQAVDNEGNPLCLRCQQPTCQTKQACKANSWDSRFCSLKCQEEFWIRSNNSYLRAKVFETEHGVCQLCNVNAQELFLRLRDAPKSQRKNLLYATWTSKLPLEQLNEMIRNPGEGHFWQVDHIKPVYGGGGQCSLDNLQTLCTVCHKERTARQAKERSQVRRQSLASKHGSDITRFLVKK

[2] = molecular target: T2, SMARCAL1 F439 F→A variant (human, UniProt Q9NZC9 1-954, F439 (F→A variant)); test: pull-down; MBP-RAD51 (bait) from bacterial soluble extract bound to amylose resin and washed; purified FLAG-SMARCAL1, FLAG-ZRANB3 or FLAG-BCDX2 (1 μg, prey) in 150 μl IP buffer (25 mM Tris-HCl pH 7.5, 100 mM NaCl, 3 mM EDTA, 0.5 mM DTT, BSA, 10% glycerol), 1 h at 4°C; eluted with maltose; Western blot with anti-MBP and anti-FLAG; settings: both partners purified
T2 construct: human SMARCAL1 with F439 disrupted; the methods call the variants SMARCAL1 F→A variants; construct as m1; The text says only 'disruption of F439'; also called disruption of F439; source: Sf9, purified similarly as the wild type
T2 sequence (looked up): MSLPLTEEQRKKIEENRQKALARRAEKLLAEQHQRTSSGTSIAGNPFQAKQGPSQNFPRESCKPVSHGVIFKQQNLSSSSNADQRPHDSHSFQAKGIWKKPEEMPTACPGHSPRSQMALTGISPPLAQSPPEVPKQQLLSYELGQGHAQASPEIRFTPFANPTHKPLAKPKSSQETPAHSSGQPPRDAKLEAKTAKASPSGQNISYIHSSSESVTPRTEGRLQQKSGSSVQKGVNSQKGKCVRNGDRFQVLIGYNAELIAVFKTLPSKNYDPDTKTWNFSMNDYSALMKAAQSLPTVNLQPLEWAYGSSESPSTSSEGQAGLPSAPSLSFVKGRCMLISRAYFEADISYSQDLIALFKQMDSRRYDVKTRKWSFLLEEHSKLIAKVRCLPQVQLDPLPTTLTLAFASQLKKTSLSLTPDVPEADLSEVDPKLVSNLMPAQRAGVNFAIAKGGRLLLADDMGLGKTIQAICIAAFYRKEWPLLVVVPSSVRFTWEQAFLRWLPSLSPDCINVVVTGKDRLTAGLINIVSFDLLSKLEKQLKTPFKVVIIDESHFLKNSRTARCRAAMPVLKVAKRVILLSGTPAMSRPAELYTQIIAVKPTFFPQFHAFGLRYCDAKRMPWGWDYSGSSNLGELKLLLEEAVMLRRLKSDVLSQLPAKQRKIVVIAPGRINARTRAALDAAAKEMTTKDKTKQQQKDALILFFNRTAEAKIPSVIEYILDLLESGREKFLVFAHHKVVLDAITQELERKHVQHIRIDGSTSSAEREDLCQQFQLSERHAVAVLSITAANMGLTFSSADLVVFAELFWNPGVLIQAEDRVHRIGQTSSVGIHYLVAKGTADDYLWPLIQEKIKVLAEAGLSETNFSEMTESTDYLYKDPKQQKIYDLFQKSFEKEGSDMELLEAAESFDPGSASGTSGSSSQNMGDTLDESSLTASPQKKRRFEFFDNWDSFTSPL

- binding result [1]: binds
- binding result [2]: binds
B1: MBP-RAD51 (natural protein, human, UniProt Q06609 1-339, looked up)
chain: MAMQMQLEANADTSVEEESFGPQPISRLEQCGINANDVKKLEEAGFHTVEAVAYAPKKELINIKGISEAKADKILAEAAKLVPMGFTTATEFHQRRSEIIQITTGSKELDKLLQGGIETGSITEMFGEFRTGKTQICHTLAVTCQLPIDRGGGEGKAMYIDTEGTFRPERLLAVAERYGLSGSDVLDNVAYARAFNTDHQTQLLYQASAMMVESRYALLIVDSATALYRTDYSGRGELSARQMHLARFLRMLLRLADEFGVAVVITNQVVAQVDGAAMFAADPKKPIGGNIIAHASTTRLYLRKGRGETRICKIYDSPCLPEAEAMFAINADGVGDAKD
notes: In the pull-downs the MBP tag was kept; the RAD51 of the DNA annealing assays was the same construct with the MBP cut off by PreScission protease and purified on HiTrap Q; not shown: MBP, N-terminal, kept
